The values that follow come from patent US20040175379A1.

For this experiment, the target named is biotinylated EpoR (Abbott CHO cell derived ref.#RB69084:4) (UniProt P19235). Description: immunofluorescence microscopy on EpoR-coated sheep red blood cells, MAB307 at 20 ug/ml.
Chain of biotinylated EpoR (Abbott CHO cell derived ref.#RB69084:4) (P19235 25-250 limits assumed): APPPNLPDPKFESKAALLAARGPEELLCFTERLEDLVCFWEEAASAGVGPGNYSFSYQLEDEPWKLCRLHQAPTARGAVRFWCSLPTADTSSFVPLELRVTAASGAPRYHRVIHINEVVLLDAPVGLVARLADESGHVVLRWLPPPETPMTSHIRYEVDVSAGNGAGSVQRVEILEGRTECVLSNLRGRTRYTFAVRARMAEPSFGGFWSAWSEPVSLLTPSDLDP

On to “murine anti-EpoR antibody (R&D Systems Cat. #MAB307)”, for which the immunofluorescence score (arbitrary scale of 0-4) was 4 of 4.
